Test results published in US20170052184A1 (published 2017).
Where a chain is given by its changes, count along the chain named.

T1: HCV Core1-169 (HCV-1, UniProt P26664 1-169)
T1 construct: also called recombinant HCV core antigen
T1 sequence: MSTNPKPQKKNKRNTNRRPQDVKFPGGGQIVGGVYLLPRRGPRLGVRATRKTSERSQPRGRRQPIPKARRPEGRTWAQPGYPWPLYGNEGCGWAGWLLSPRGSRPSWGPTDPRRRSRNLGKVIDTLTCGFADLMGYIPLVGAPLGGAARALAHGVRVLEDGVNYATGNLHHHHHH

B1: HCV 208B-178 (antibody, V domains shown)
VH: DVKLVESGGGLVKLGGSLKLSCAASGFTFSSYYMSWVRQTPEKRLELVAAINSNGGSTYYPDTVKGRFTISRDNAKNTLYLQMSSLKSEDTALYYCARHGGLGRRDWYFDVWGAGTTVTVSS
VL: DIVLTQSPASLAVSLGQRATISCRASESVDNYGISFMHWYQQKPGQPPKLLIYRASNLESGIPARFSGSGSRTDFTLTINPVETDDVATYYCQQSNKDPFTFGSGAKLEIKR
B2: HCV 208B-1096 (antibody, V domains shown)
VH: QVQLQQSGAGLAKPGASVKMSCKASGYTFTANKMHWAKQRPGQGLEWIGYIDPSSGYTEYNHKIQYKATLTADTSSSTAYMQLSTLTFEDSAVYYCTNFAYWGQGTLVTVSA
VL: DIVMTQTPLTLSVTIGQPASISCKSSQSLLFTNGKTYLNWFLQRPGQSPKRLIYLLSKLDSGVPDRFSGSGSGTDFTLKISRVEAEDLGVYYCLQSTYFPLTFGAGTKLELKR
B3: HCV 208B-547 (antibody, V domains shown)
VH: B2 VH with G10E, A31S, H62Q, Q65K, Y66D, T74K, T85S, F88S
VL: EVVLTQSPAITAASLGQKVTITCRASSSVSYMHWYRQKSGTSPQPWIYEISTLASGVPTRFRASGSGTSYSLTISSMEAEDAAIYYCQQWNYPLTFGAGTKLELKR
B4: HCV 208B-395 (antibody, V domains shown)
VH: B2 VH with A37T, E59Q, Y66D, T85S
VL: DIVLTQSPATLSVTPGDRVSLSCRASQRIYNYLHWYQQKSHESPRLLIKYASQSISGIPSRFSGSGSGTDFILTINSVETEDFGMYFCQQSNSWPLTFGAGTKLELRR
B5: HCV 208B-589 (antibody, V domains shown)
VH: B2 VH with Y66D, T85S
VL: B2 VL
B6: HCV 208B-911 (antibody, V domains shown)
VH: QVHLQQPGAELVRPGVSVKLSCKASGYTFTTYSINWMKQRPGQGLEWIGNIYPSTSHTNYNQKFRDKATMTVDKSSSTAYMQLSSPTSEDSAVYYCTINAYSMDYWGQGTSVTVSS
VL: QIVLTQSPEIMSASPGEKVTITCSASSSVSFMYWFQQKPGTSPKLWIYITSNLASGVPTRFSGSGSGTSYSLTISRMEAEDAATYYCQQRSSFPYTFGGGTKLEMKR
B7: HCV 208B-517 (antibody, V domains shown)
VH: QVQLKQSGPGLVQPSQSLSITCTVSGFSLITHGVHWVRQSPGKGLEWLGVIWSGGSTDYNAAFISRLSISKDTSKSQVFLKMSSLQADDTAIYYCARNGGATAFDYWGQGTTLTVSS
VL: DIVMTQSPATLSVTPGDRVSLSCRASQSISDYLHWYQQKSHESPRLLIKYASQSISGIPSRFRGSGSGSHFTLSINSVEPEDVGVYYCQNGHSFPWTFGGGTKLEIKR
B8: HCV 208B-822 (antibody, V domains shown)
VH: QVQLKQSGPGLVQPSQSLSITCTVSGFSLITYGVHWVRQSPGKGLEWLGVIWGGGSTGYNAAFVSRLNITKDNSKSQVFFKMNSLQPDDTAIYYCARNGGATVFDYWGQGTTLTVSS
VL: B7 VL with S28T, R63S
B9: HCV 208B-408 (antibody, V domains shown)
VH: EVKLVESGGGLVQPGGSLRLSCASSGFTFTDYYMSWVRQPPGKALEWLGFIRNKAYGYTTEFSASVNGRFTISRDDSQSVPYLQMNTLRAEDSATYYCARVLYYDYGGFAYWGQGTLVTVST
VL: DIQMTQSPASLSASVGETVTITCRASGNIHTYLAWYQQKQGKSPQLLVYNANTLADGVPSRFSGSGSGTQFSLKINSLQPDDFGSYYCQHFWSAPWTFGGGTQLEIKR
B10: HCV 208B-672 (antibody, V domains shown)
VH: EVKLVESGGSLVQPGGSLKLSCAASGFNFNTYAMSWVRQTPEKRLEWVAYISNGGGNTYYVDTVKGRFTISRDNAKNTLYLRMSSLKSEDTAMYYCARHGLYWGYSMDYWGQGTSVTVSS
VL: DIQMTQSPSSLSASLGERVSLTCRASQDIGGSINWLQQEPDGTIKRLIYATSSLDSGVPKRFSGSRSGSDYSLTISSLESEDFVDYYCLQYASSPPTFGGGTKLEIKR
B11: HCV 208B-612 (antibody, V domains shown)
VH: EVQLQQSGPELVKPGASVKMSCKASGYRFTSYVMHWVRQKPGQGLEWIGYIDPHNDDTKYSEKFRGKATLTSDKSSTTAYMELSSLTSEDSAVYYCVRYSYDRDYSPMDYWGQGTSVTVSS
VL: QIVLTQSPTLMSASPGEKVTMTCSASSTVTYIYWYQQKPGSSPRLWMYDTFNLVSGVPARFSGSRSGTSYFLTISSMEGEDAATYYCQQYSDSPYTFGGGTKLEIKR
B12: HCV 208B-327 (antibody, V domains shown)
VH: EVQLVESGGGLVKPGGSLKLSCAASGFTFSDSYMYWVRQTPDQRLEWVATISDGGSYTFYPDSVKGRFTISRDNAQNNLYLQMSSLKSEDTAMYYCASPHAGYFGWFAYWGRGTLVTVSA
VL: DIVMTQAAFSNPVTPGTSVSISCRSSKSLLHSNGITYLYWYLQKPGQSPQLLIYQMSKIASGVPDRFRSSGSGTDFTLRISRVEAADVGVYYCAQNLELPWTFGGGTKLEIKR
B13: HCV 208B-515 (antibody, V domains shown)
VH: QVQLQQPGAELVKPGASLKLSCRASGYTFTSYWIHWVKQRPGQGLEWIGEIDPSDSYTNYNQKFKGKATLTVDKSSRAAYMQLSSLTSEDSAVYYCARHYYGVFDSWGQGTKLTVSS
VL: QIVFTQYPAIMSASLGERVTMTCTASSSVTSSYLHWFQQKPGSSPKLWIYSTSNPGSGVPARFSGRGSGTSYSLSISSMEAEDAATYYCLQFHRSPWTFGGGTKLEIRR
B14: HCV 208B-793 (antibody, V domains shown)
VH: EVKLVESGGGLVQPGGSLKLSCAASGFTFSSYAMSWVRQTPERRLEWVTYISNGGGSTYYSDTVKGRFTFSRDNAKNTLYLQMSSLKSEDTAMYYCARHGLGRTGFASWGQGTLVTVSA
VL: DIVMTQSHKFMSTSVGDRVSITCKASQDVGTAVAWYQQKPGQSPKLLIYWASTRHTGVPDRFTGSGSGTDFTLTISNVQSEDLADYFCQQYSNYLTFGAGTKLEVKR
B15: HCV 208B-189 (antibody, V domains shown)
VH: QVHLQQSGAELAKPGASVQMSCKASGYTFTANKMHWARQRPRQGLEWIGYIDPASGYTEYNQKIKDRATLTADKSSSTAYMQLSSLTSEDSAVYYCTNFAYWGQGTLVTVST
VL: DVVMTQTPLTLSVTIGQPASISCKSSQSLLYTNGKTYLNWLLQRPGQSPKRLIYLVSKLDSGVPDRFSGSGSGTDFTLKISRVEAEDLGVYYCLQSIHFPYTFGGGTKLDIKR
B16: HCV 208A-352 (antibody, V domains shown)
VH: QGQMQQSGAELVKPGASVKLSCKTSGFTFSSSFISWLKQKPGQSLEWIAWIYAGTGNTNYNQKFTDKAQLTVDTSSSTAYMQFSSLTTEDSAIYYCAISGTGFTYWGQGTLVTVSA
VL: DVLMAQTPLSLPVTLGDQASISCRSSQSLVHSNGNTYLEWFLQKPGQSPKLLIYNVSNRFSGVPDRFSGSGSGTDFTLKISRVEAEDLGVYYCFQGSHVPLTFGSGTKLEIKR
B17: HCV 208B-281 (antibody, V domains shown)
VH: B16 VH with M4L, F33Y, K40R, N57G, T104I
VL: B16 VL with A5T, T14S, S32N, N55K, L101F
B18: HCV 208A-210 (antibody, V domains shown)
VH: QVQLQQSGPELVKPGASMRISCKASGYTFTSYYVHWIKQRPGQGLEWIGCIYPGDVNTDYNEKFKGKATLTADKSSSTAYMQVSTLTSEDSAIYFCVLYYYGSFAYWGQGTLVTVSA
VL: B3 VL with V2I, K18N, P45L, T52R, L53R, T59A, L104V
B19: HCV 208B-1094 (antibody, V domains shown)
VH: EVQLQQSGPELVKPGASVKISCKTSGYTFTEYAMHWMKQSHGKSLEWIGGINPTNGDTIYNQRFKDKAKLTVDRSSSTAYMELRSLTSDDSALFYCARRELDYFASWGQGTTLTVSS
VL: DIVLTQSPASLIVSLGQTATISCRASQSLSTSRFSYVHWIQQKPGQPPKLLIKYASNLESGVPVRFSGSGSGTDFTLNIHPVEEEDTATYFCQHSWEFPFTFGSGTKLKIKR
B20: HCV 208B-826 (antibody, V domains shown)
VH: DVQLVESGGGLVQAGGSRKLSCAASGFPFSSFGMHWVRQAPEKGLEWVASISSRTSKIYYADNLKGRFTISRDNPKNTLFLQMTSLGSEDTAMYYCVRSVFGNSYWFFDVWGAGTTVTVSS
VL: B4 VL with I48T
B21: HCV 208A-207 (antibody, V domains shown)
VH: QGQLQQPGAEFVKPGASLKLSCRASGYTFTSYWIHWVKQRPGQGLEWIGEIDPSDSYINQNQKFRGKATLTVDKSSSTAYMELSGLTSEDSAVYYCARHYYGVLDSWGQGTTLTVSS
VL: B4 VL with I48T

Experiments:
HCV Core1-169 [1] = target: T1, HCV Core1-169; test: EIA, core1-169 coated on plate
HCV Core1-169 [2] = target: T1, HCV Core1-169; test: EIA, core1-169 captured by mAb 14-153-229
Note: test concentration or dose not given here.

| Binder | OD (A492) (HCV Core1-169 [1]) | OD (A492) (HCV Core1-169 [2]) |
| --- | --- | --- |
| B1 | 0.89 OD | 1.09 OD |
| B2 | 0.49 OD | 1.75 OD |
| B3 | 0.46 OD | 1.62 OD |
| B4 | 0.5 OD | 1.95 OD |
| B5 | 0.68 OD | 1.29 OD |
| B6 | 1.18 OD | 0.14 OD |
| B7 | 0.79 OD | 0.97 OD |
| B8 | 0.22 OD | 0.12 OD |
| B9 | 0.09 OD | 0.09 OD |
| B10 | 1.77 OD | 0.99 OD |
| B11 | 0.18 OD | 1.2 OD |
| B12 | 0.14 OD | 0.11 OD |
| B13 | 0.06 OD | 0.08 OD |
| B14 | 0.85 OD | 0.17 OD |
| B15 | 0.49 OD | 1.81 OD |
| B16 | 0.1 OD | 0.53 OD |
| B17 | 0.09 OD | 0.11 OD |
| B18 | 0.87 OD | 0.87 OD |
| B19 | 0.9 OD | 1.51 OD |
| B20 | 0.65 OD | 0.72 OD |
| B21 | 0.11 OD | 0.41 OD |
